From publication PMC5372222

B1: thrombin 15-mer aptamer protected with PolyA-Oligo10 on AuNP (mixed)
DNA: GGTTGGTGTGGTTGG
?: AAAAAAAAAAAAAAAAAAAACCAACCACAC
modifications: 5'-SH-(CH2)6 thiol on strand 1

Key:
[1] = target: T1, human alpha-thrombin (Homo sapiens, UniProt P00734;P00734 328-363;364-622); assay: blot with Apt-AuNP probe and gold enhancement; thrombin in 10-fold diluted human serum on PVDF; strong background from serum proteins; binding buffer 100 mM NaCl, 20 mM Tris-HCl, 2 mM MgCl2, 5 mM KCl, 1 mM CaCl2, 0.02% Tween 20; pH and temperature of binding not stated
[2] = target: T1, human alpha-thrombin; assay: blot with protected Apt-AuNP probe and gold enhancement; thrombin in 10-fold diluted human serum on PVDF; protection DNA 1 uM before 10x dilution; as low as 30 ng detected; binding buffer 100 mM NaCl, 20 mM Tris-HCl, 2 mM MgCl2, 5 mM KCl, 1 mM CaCl2, 0.02% Tween 20; pH and temperature of binding not stated

| Binder | binding result [1] | binding result [2] |
| --- | --- | --- |
| GGTTGGTGTGGTTGG (ssDNA, 5'-SH-(CH2)6 thiol) [thrombin 15-mer aptamer on AuNP (Apt-AuNP)] | binds |  |
| B1 |  | binds |
